Values of other authors, collected in article PMC3890242.

Target: Tyr57 (UniProt position 57, QIAAFYRQGLG)
Assay: UV-vis
Conditions: unliganded D40N pKSI

Ketosteroid isomerase (pKSI) D40N (Pseudomonas putida; D40N)
pKa: 6.3 ± 0.1
